{
  "source": "patent US20130090286A1",
  "about": "(published 2013)",
  "key": {"GLP-1 receptor": {"target": "GLP-1 receptor (UniProt P43220 24-463, limits assumed)", "assay": "cell-based or functional assay"}, "glucagon receptor": {"target": "glucagon receptor (UniProt P47871 26-477, limits assumed)", "sequence (P47871 26-477 limits assumed)": "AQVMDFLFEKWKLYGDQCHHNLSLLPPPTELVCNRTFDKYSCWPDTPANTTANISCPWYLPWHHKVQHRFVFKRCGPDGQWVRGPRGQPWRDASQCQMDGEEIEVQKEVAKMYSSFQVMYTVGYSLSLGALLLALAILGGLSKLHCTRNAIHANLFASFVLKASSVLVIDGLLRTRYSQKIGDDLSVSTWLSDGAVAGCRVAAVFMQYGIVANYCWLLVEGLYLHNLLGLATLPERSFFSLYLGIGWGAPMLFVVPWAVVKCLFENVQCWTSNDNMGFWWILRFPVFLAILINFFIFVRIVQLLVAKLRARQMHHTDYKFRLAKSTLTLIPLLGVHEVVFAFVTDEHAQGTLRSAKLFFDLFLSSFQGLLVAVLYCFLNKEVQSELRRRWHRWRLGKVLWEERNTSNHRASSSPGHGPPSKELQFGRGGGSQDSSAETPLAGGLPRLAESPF", "assay": "cell-based or functional assay"}},
  "note": "Several values for one entry are separate records, joined by “and”; a condition that tells them apart may be missing. Identical values can stand only once. Numbered stars: 1 amine (or outer) side, 2 acyl side, 3 side chain; on linkers, the order of the positions; unused ones are H or OH. Bridge positions count the residues as written; N and C are the ends. Square brackets hold non-standard residues; d marks the D form. Side chains are listed from the residue outwards. Ends that are not written are not given here. * marks the point of attachment. γGlu = O=C(O)[C@H](CCC(=O)[*:2])N[*:1]; Palmitoyl = CCCCCCCCCCCCCCCC(=O)*; DMIA = not defined here; Aib = CC(C)(N)C(=O)O",
  "data": [
    {"binder": "[DMIA]SQGTFTSDK([γGlu-γGlu-Palmitoyl])SKYLDERRAKDFVQWLMNT (lactam 16-20; reading uncertain)", "note": "[DMIA1, E16/K20 lactam, Lys10 γE-γE-C16 (SEQ ID NO: 652)]", "values": [
      {"measurement": "in vitro activity EC50", "setting": "GLP-1 receptor", "value": 4, "unit": "pM"}
    ]},
    {"binder": "H[Aib]QGTFTSDK([γGlu-Palmitoyl])SKYLDEQAAKEFIAWLMNT-NH2 (N-terminus assumed; SMILES CCCCCCCCCCCCCCCC(=O)N[C@@H](CCC(=O)NCCCC[C@H](NC(=O)[C@H](CC(=O)O)NC(=O)[C@H](CO)NC(=O)[C@@H](NC(=O)[C@H](Cc1ccccc1)NC(=O)[C@@H](NC(=O)CNC(=O)[C@H](CCC(N)=O)NC(=O)C(C)(C)NC(=O)[C@@H](N)Cc1c[nH]cn1)[C@@H](C)O)[C@@H](C)O)C(=O)N[C@@H](CO)C(=O)N[C@@H](CCCCN)C(=O)N[C@@H](Cc1ccc(O)cc1)C(=O)N[C@@H](CC(C)C)C(=O)N[C@@H](CC(=O)O)C(=O)N[C@@H](CCC(=O)O)C(=O)N[C@@H](CCC(N)=O)C(=O)N[C@@H](C)C(=O)N[C@@H](C)C(=O)N[C@@H](CCCCN)C(=O)N[C@@H](CCC(=O)O)C(=O)N[C@@H](Cc1ccccc1)C(=O)N[C@H](C(=O)N[C@@H](C)C(=O)N[C@@H](Cc1c[nH]c2ccccc12)C(=O)N[C@@H](CC(C)C)C(=O)N[C@@H](CCSC)C(=O)N[C@@H](CC(N)=O)C(=O)N[C@H](C(N)=O)[C@@H](C)O)[C@@H](C)CC)C(=O)O)", "note": "[Chi-2, AIB2, Lys10 γE-C16 (SEQ ID NO: 645)]", "values": [
      {"measurement": "in vitro activity EC50", "setting": "GLP-1 receptor", "value": 1.4, "unit": "pM"},
      {"measurement": "in vitro activity EC50", "setting": "glucagon receptor", "value": 25, "unit": "pM"}
    ]},
    {"binder": "H[Aib]QGTFISDK([γGlu-γGlu-Palmitoyl])SKYLDEQAAKEFIAWLMNT-NH2 (N-terminus assumed; SMILES CCCCCCCCCCCCCCCC(=O)N[C@@H](CCC(=O)N[C@@H](CCC(=O)NCCCC[C@H](NC(=O)[C@H](CC(=O)O)NC(=O)[C@H](CO)NC(=O)[C@@H](NC(=O)[C@H](Cc1ccccc1)NC(=O)[C@@H](NC(=O)CNC(=O)[C@H](CCC(N)=O)NC(=O)C(C)(C)NC(=O)[C@@H](N)Cc1c[nH]cn1)[C@@H](C)O)[C@@H](C)CC)C(=O)N[C@@H](CO)C(=O)N[C@@H](CCCCN)C(=O)N[C@@H](Cc1ccc(O)cc1)C(=O)N[C@@H](CC(C)C)C(=O)N[C@@H](CC(=O)O)C(=O)N[C@@H](CCC(=O)O)C(=O)N[C@@H](CCC(N)=O)C(=O)N[C@@H](C)C(=O)N[C@@H](C)C(=O)N[C@@H](CCCCN)C(=O)N[C@@H](CCC(=O)O)C(=O)N[C@@H](Cc1ccccc1)C(=O)N[C@H](C(=O)N[C@@H](C)C(=O)N[C@@H](Cc1c[nH]c2ccccc12)C(=O)N[C@@H](CC(C)C)C(=O)N[C@@H](CCSC)C(=O)N[C@@H](CC(N)=O)C(=O)N[C@H](C(N)=O)[C@@H](C)O)[C@@H](C)CC)C(=O)O)C(=O)O)", "note": "[Chi-2, AIB2, I7, Lys10 γE-γE-C16 (SEQ ID NO: 650)]", "values": [
      {"measurement": "in vitro activity EC50", "setting": "GLP-1 receptor", "value": 10, "unit": "pM"},
      {"measurement": "in vitro activity EC50", "setting": "glucagon receptor", "value": 7, "unit": "pM"}
    ]},
    {"binder": "H[Aib]QGTFTSDK([γGlu-γGlu-Palmitoyl])SKYLDEQAAKEFIAWLMNT-NH2 (N-terminus assumed; SMILES CCCCCCCCCCCCCCCC(=O)N[C@@H](CCC(=O)N[C@@H](CCC(=O)NCCCC[C@H](NC(=O)[C@H](CC(=O)O)NC(=O)[C@H](CO)NC(=O)[C@@H](NC(=O)[C@H](Cc1ccccc1)NC(=O)[C@@H](NC(=O)CNC(=O)[C@H](CCC(N)=O)NC(=O)C(C)(C)NC(=O)[C@@H](N)Cc1c[nH]cn1)[C@@H](C)O)[C@@H](C)O)C(=O)N[C@@H](CO)C(=O)N[C@@H](CCCCN)C(=O)N[C@@H](Cc1ccc(O)cc1)C(=O)N[C@@H](CC(C)C)C(=O)N[C@@H](CC(=O)O)C(=O)N[C@@H](CCC(=O)O)C(=O)N[C@@H](CCC(N)=O)C(=O)N[C@@H](C)C(=O)N[C@@H](C)C(=O)N[C@@H](CCCCN)C(=O)N[C@@H](CCC(=O)O)C(=O)N[C@@H](Cc1ccccc1)C(=O)N[C@H](C(=O)N[C@@H](C)C(=O)N[C@@H](Cc1c[nH]c2ccccc12)C(=O)N[C@@H](CC(C)C)C(=O)N[C@@H](CCSC)C(=O)N[C@@H](CC(N)=O)C(=O)N[C@H](C(N)=O)[C@@H](C)O)[C@@H](C)CC)C(=O)O)C(=O)O)", "note": "[Chi-2, AIB2, Lys10 γE-γE-C16 (SEQ ID NO: 646)]", "values": [
      {"measurement": "in vitro activity EC50", "setting": "GLP-1 receptor", "value": 1.8, "unit": "pM"},
      {"measurement": "in vitro activity EC50", "setting": "glucagon receptor", "value": 14, "unit": "pM"}
    ]},
    {"binder": "H[Aib]EGTFTSDK([γGlu-γGlu-Palmitoyl])SKYLDEQAAKEFIAWLMNT", "note": "[Chi-2, AIB2, E3, Lys10 γE-γE-C16 (SEQ ID NO: 648)]", "values": [
      {"measurement": "in vitro activity EC50", "setting": "GLP-1 receptor", "value": 4, "unit": "pM"},
      {"measurement": "in vitro activity EC50", "setting": "glucagon receptor", "value": 2920, "unit": "pM"}
    ]},
    {"binder": "H[Aib]EGTFTSDK(Palmitoyl)SKYLDEQAAKEFIAWLMNT-NH2 (N-terminus assumed; SMILES CCCCCCCCCCCCCCCC(=O)NCCCC[C@H](NC(=O)[C@H](CC(=O)O)NC(=O)[C@H](CO)NC(=O)[C@@H](NC(=O)[C@H](Cc1ccccc1)NC(=O)[C@@H](NC(=O)CNC(=O)[C@H](CCC(=O)O)NC(=O)C(C)(C)NC(=O)[C@@H](N)Cc1c[nH]cn1)[C@@H](C)O)[C@@H](C)O)C(=O)N[C@@H](CO)C(=O)N[C@@H](CCCCN)C(=O)N[C@@H](Cc1ccc(O)cc1)C(=O)N[C@@H](CC(C)C)C(=O)N[C@@H](CC(=O)O)C(=O)N[C@@H](CCC(=O)O)C(=O)N[C@@H](CCC(N)=O)C(=O)N[C@@H](C)C(=O)N[C@@H](C)C(=O)N[C@@H](CCCCN)C(=O)N[C@@H](CCC(=O)O)C(=O)N[C@@H](Cc1ccccc1)C(=O)N[C@H](C(=O)N[C@@H](C)C(=O)N[C@@H](Cc1c[nH]c2ccccc12)C(=O)N[C@@H](CC(C)C)C(=O)N[C@@H](CCSC)C(=O)N[C@@H](CC(N)=O)C(=O)N[C@H](C(N)=O)[C@@H](C)O)[C@@H](C)CC)", "note": "[Chi-2, AIB2, E3, Lys10-C16, no spacer (SEQ ID NO: 647)]", "values": [
      {"measurement": "in vitro activity EC50", "setting": "GLP-1 receptor", "value": 5, "unit": "pM"},
      {"measurement": "in vitro activity EC50", "setting": "glucagon receptor", "value": 46100, "unit": "pM"}
    ]},
    {"binder": "H[dS]QGTFTSDK([γGlu-γGlu-Palmitoyl])SKYLDEQAAKEFIAWLMNT", "note": "[Chi-2, d-Ser2, Lys10 γE-γE-C16 (SEQ ID NO: 644)]", "values": [
      {"measurement": "in vitro activity EC50", "setting": "GLP-1 receptor", "value": 3, "unit": "pM"},
      {"measurement": "in vitro activity EC50", "setting": "glucagon receptor", "value": 8, "unit": "pM"}
    ]},
    {"binder": "H[Aib]QGTFISDK([γGlu-Palmitoyl])SKYLDEQAAKEFIAWLMNT-NH2 (N-terminus assumed; SMILES CCCCCCCCCCCCCCCC(=O)N[C@@H](CCC(=O)NCCCC[C@H](NC(=O)[C@H](CC(=O)O)NC(=O)[C@H](CO)NC(=O)[C@@H](NC(=O)[C@H](Cc1ccccc1)NC(=O)[C@@H](NC(=O)CNC(=O)[C@H](CCC(N)=O)NC(=O)C(C)(C)NC(=O)[C@@H](N)Cc1c[nH]cn1)[C@@H](C)O)[C@@H](C)CC)C(=O)N[C@@H](CO)C(=O)N[C@@H](CCCCN)C(=O)N[C@@H](Cc1ccc(O)cc1)C(=O)N[C@@H](CC(C)C)C(=O)N[C@@H](CC(=O)O)C(=O)N[C@@H](CCC(=O)O)C(=O)N[C@@H](CCC(N)=O)C(=O)N[C@@H](C)C(=O)N[C@@H](C)C(=O)N[C@@H](CCCCN)C(=O)N[C@@H](CCC(=O)O)C(=O)N[C@@H](Cc1ccccc1)C(=O)N[C@H](C(=O)N[C@@H](C)C(=O)N[C@@H](Cc1c[nH]c2ccccc12)C(=O)N[C@@H](CC(C)C)C(=O)N[C@@H](CCSC)C(=O)N[C@@H](CC(N)=O)C(=O)N[C@H](C(N)=O)[C@@H](C)O)[C@@H](C)CC)C(=O)O)", "note": "[Chi-2, AIB2, I7, Lys10 γE-C16 (SEQ ID NO: 649)]", "values": [
      {"measurement": "in vitro activity EC50", "setting": "GLP-1 receptor", "value": "24 pM and 44 pM"},
      {"measurement": "in vitro activity EC50", "setting": "glucagon receptor", "value": 14, "unit": "pM"}
    ]},
    {"binder": "H[dS]QGTFTSDK([γGlu-Palmitoyl])SKYLDEQAAKEFIAWLMNT", "note": "[Chi-2, d-Ser2, Lys10 γE-C16 (SEQ ID NO: 643)]", "values": [
      {"measurement": "in vitro activity EC50", "setting": "GLP-1 receptor", "value": 1.4, "unit": "pM"},
      {"measurement": "in vitro activity EC50", "setting": "glucagon receptor", "value": 11, "unit": "pM"}
    ]}
  ]
}
